Data published in patent US20230203117A1.

Biological target: IL-10Rβ on human primary monocytes and CD8 T cells (human) (UniProt Q08334)
Assay: cell-based or functional assay

IL-10Rβ on human primary monocytes and CD8 T cells (human), sequence (Q08334 20-325): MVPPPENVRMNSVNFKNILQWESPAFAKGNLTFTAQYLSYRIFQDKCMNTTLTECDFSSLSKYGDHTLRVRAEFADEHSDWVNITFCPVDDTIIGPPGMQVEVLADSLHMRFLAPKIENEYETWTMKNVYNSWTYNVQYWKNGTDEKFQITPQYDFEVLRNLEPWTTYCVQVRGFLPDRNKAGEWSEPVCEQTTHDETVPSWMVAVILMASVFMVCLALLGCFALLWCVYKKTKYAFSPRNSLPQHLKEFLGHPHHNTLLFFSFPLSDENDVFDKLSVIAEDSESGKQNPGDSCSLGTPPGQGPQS
wild type IL-10 dimer (WTD), sequence (P22301 other isoform, or with tags, fused parts or gaps): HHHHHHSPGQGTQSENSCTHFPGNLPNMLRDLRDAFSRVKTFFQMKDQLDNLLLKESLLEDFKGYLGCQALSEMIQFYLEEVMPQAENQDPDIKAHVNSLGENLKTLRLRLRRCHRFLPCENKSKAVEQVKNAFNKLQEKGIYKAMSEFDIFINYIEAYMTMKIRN

Row | granzyme B production in CD8 T cells, flow cytometry | reduction of HLA-DR surface levels in human primary monocytes | pSTAT1 and pSTAT3 in human CD8 T cells, amplitude of activation (% of the dimeric molecules) | pSTAT1 and pSTAT3 in human monocytes, amplitude of activation (percentage of WTD) | Substance
1 | 2.5 fold | 50% |  |  | wild type IL-10 dimer (WTD) (from UniProt P22301 19-178) (ligand)
2 |  | 20% | < 25 | < 50 | wild type monomeric IL-10 (WTM), recombinant (ligand)
